US20170058015A1 (ALBERT EINSTEIN COLLEGE OF MEDICINE, published 2017)

What was measured:
[1] = target: 8.3 T cell receptor on CD8+ T cells of 8.3 TCR transgenic NOD mice (mouse (NOD)); assay: cell-based or functional assay
[2] = target: T1, synTac 4-1BBL trimer (synTac 40+51; 4-1BBL synTac co-expressed with free 4-1BBL) (murine, UniProt P41273 50-254 (human entry), Interchain disulfide between linker Cys (GCGAS) and H-2Kd Cys84. Fc hinge disulfides join two synTac units. Two free 4-1BBL chains join each synTac-borne 4-1BBL non-covalently.); assay: flow cytometry, Protein A microbeads coated with 4-1BB-Fc; detection antibody to the synTac heavy chain isotype
T1 construct: also called Native trimer; trimeric syntac-41BBL

“synTac IGRP-PD-L1 (light chain version) (from UniProt Q9Z186 206-214; P01902 22-305) (peptide-MHC)” showed an IFNγ secretion by anti-CD3 stimulated CD8+ 8.3 T cells (suppression) [1] of 100 fold.

B1: recombinant mouse 4-1BB-Fc fusion protein (Fc fusion, UniProt P20334 24-187, looked up)
chain: VQNSCDNCQPGTFCRKYNPVCKSCPPSTFSSIGGQPNCNICRVCAGYFRFKKFCSSTHNAECECIEGFHCLGPQCTRCEKDCRPGQELTKQGCKTCSLGTFNDQNGTGVCRPWTNCSLDGRSVLKTGTTEKDVVCGPPVVSFSPSTTISVTPEGGPGGHSLQVL
notes: From commercial sources; coated on Protein A microbeads; also called murine 4-1BB; murine receptor; not shown: Fc of the commercial fusion protein
B1: binds [2].
